Reference: patent US20260209363A1 (Chugai, published 2026)

T1: human soluble IL-6R (human, UniProt P08887 20-357, limits assumed)
T1 construct: Soluble form; also called sIL6R; Human IL-6R
T1 sequence (looked up): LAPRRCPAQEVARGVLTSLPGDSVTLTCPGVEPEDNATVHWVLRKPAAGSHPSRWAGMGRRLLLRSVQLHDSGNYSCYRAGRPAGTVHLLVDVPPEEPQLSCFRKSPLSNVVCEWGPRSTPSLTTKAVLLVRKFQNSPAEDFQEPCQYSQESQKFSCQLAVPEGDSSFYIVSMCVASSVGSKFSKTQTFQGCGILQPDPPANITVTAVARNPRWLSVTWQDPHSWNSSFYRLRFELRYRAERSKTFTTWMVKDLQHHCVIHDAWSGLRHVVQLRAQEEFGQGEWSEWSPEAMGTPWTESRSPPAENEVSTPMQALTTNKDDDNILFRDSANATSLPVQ


Key:
[1] = target: T1, human soluble IL-6R; assay: in vivo KD in mouse plasma (albumin present), from total antibody, free and bound sIL6R 5 min after sIL6R; antibody 0.2 mg/kg IV
Protocol: (§1) Next, free sIL6R in plasma was measured. The concentration of free sIL6R in plasma was measured on a fully automated ELISA system (Gyrolab xP workstation). First, sIL6R prepared at 23.4, 46.9, 93.8, 188, 375, 750, and 1500 ng/mL using a Protein-Free (PBS) Blocking Buffer (Thermo Scientific) was used as solutions for preparing the calibration curve. Mouse plasma samples were used in the measurements without diluting them. A solution of biotin-labeled H54 diluted to 10 micro g/mL using a Protein-Free (PBS) Blocking Buffer was used as a solution of the sIL6R-capturing molecule. Alexa Fluor (registered trademark) 647-labeled anti-human IL-6R antibody (R&D Systems) diluted to 1 micro g/mL using a Protein-Free (PBS) Blocking Buffer was used as a solution of the human IL-6R-detection molecule. PBS (pH 7.4) containing 0.05% TWEEN was used as a washing solution. The calibration curve solutions, mouse plasma samples, sIL6R-capturing molecule solution, sIL6R-detection molecule solution, and the washing solution were placed onto a PCR plate, and then the PCR plate was sealed with a plate sealer. After the PCR plate and the Bioaffy 200 disc were placed in the Gyrolab xP workstation, measurements were taken. Using the data processed by the Gyros Evaluater 3.6.2.30 software and the calibration curve concentrations, the concentration of free sIL6R in plasma was calculated by logistic regression using the XLfit 5.5.0.5 software.
Additionally, bound sIL6R in plasma was measured. The concentration of bound sIL6R in plasma was measured on an electrospray ionization mass spectrometer connected to a high-performance liquid chromatography (LC/ESI-MS/MS). First, H54//IC17 and sIL6R were mixed, and solutions for preparing the calibration curve of bound sIL6R were prepared at theoretical plasma concentrations of 0.0468, 0.467, 4.60, and 20.1 nmol/mL. […]

[2] = target: T1, human soluble IL-6R; assay: in vivo KD in mouse plasma (albumin present), from total antibody, free and bound sIL6R 5 min after sIL6R; antibody 1 mg/kg IV
Protocol: as §1
Additionally, bound sIL6R in plasma was measured. The concentration of bound sIL6R in plasma was measured on an electrospray ionization mass spectrometer connected to a high-performance liquid chromatography (LC/ESI-MS/MS). First, H54//IC17 and sIL6R were mixed, and solutions for preparing the calibration curve of bound sIL6R were prepared at theoretical plasma concentrations of 0.0468, 0.467, 4.60, and 20.1 nmol/mL. The solutions for preparing the calibration curve and 1 or 2 micro L of a plasma sample were added to 75 or 150 micro g of magnetic beads (Magnosphere MS300/Carboxyl, JSR) to which anti-delta GK antibodies were solid-phased, and this was shaken at 25 degrees C. for one hour.

[3] = target: T1, human soluble IL-6R; assay: SPR (Biacore T200), antibody captured on Protein G, human IL-6R as analyte, 37 degrees C, no albumin
Protocol: Binding activities of the produced albumin switch molecules against human IL-6R were evaluated using Biacore T200 (Cytiva). As the running buffer, 50 mM Na Phosphate (pH 7.4), 150 mM NaCl, 0.05% Tween20 was used, and the evaluation was performed at 37 degrees C. First, Protein G (CALBIOCHEM) was used as a ligand-capturing molecule. Protein G (CALBIOCHEM) was solid-phased on a Series S Sensor Chip CM4 (Cytiva) using an Amine Coupling Kit (Cytiva). Antibody solution prepared using the running buffer was allowed to interact with this CM4 sensor chip to capture approximately 200 RU of the antibody. Human IL-6R used in the present measurement was prepared by an approach described in WO2018097307 (Example 3-2). Human IL-6R was diluted to 0, 100, and 400 nM with the running buffer, and allowed to bind to the captured antibody. The chip was regenerated using 3 M MgCl₂, and measurements were performed by repeatedly capturing the antibodies. Dissociation constant (KD) of each antibody for human IL-6R was calculated using Biacore T200 Evaluation Software 2.0. Specifically, the association rate constant ka (L/mol/s) and the dissociation rate constant kd (1/s) were calculated by global fitting of the sensorgrams obtained by measurement with the 1:1 Langmuir binding model, and the dissociation constant KD (mol/L) was calculated from these values.

[4] = target: T2, mouse albumin (mouse, UniProt P07724 25-608); assay: SPR (Biacore T200), antibody captured by anti-human Fc antibody, mouse albumin as analyte, 25 degrees C
T2 construct: also called recombinant mouse Albumin; mouse serum albumin
Protocol: Binding activities of the produced antibodies against mouse albumin were evaluated using Biacore T200 (Cytiva).
As the running buffer, 50 mM Na Phosphate (pH 7.4), 150 mM NaCl, 0.05% Tween20 was used, and the evaluation was performed at 25 degrees C. First, anti-human Fc antibody (Cytiva) was used as a ligand-capturing molecule. Anti-human Fc antibody (Cytiva) was solid-phased on a Series S Sensor Chip CM4 (Cytiva) using an Amine Coupling Kit (Cytiva). Antibody solution prepared using the running buffer was allowed to interact with this CM4 sensor chip to capture approximately 120 RU of the antibody. Mouse albumin (Bioscience) was diluted to 0 and 300 nM with the running buffer and allowed to bind to the captured antibody. The chip was regenerated using 3 M MgCl₂, and measurements were performed by repeatedly capturing the antibodies. Dissociation constant (KD) of each antibody for mouse albumin was calculated using Biacore T200 Evaluation Software 2.0. Specifically, the association rate constant ka (L/mol/s) and the dissociation rate constant kd (1/s) were calculated by global fitting of the sensorgrams obtained by measurement with the 1:1 Langmuir binding model, and the dissociation constant KD (mol/L) was calculated from these values.

[5] = target: T1, human soluble IL-6R; assay: Gyrolab xP immunoassay of antibody-antigen complex in C57BL/6J mouse plasma (albumin present), 1 nM antibody, 4 nM antigen

Binder	Kd [1] [nM]	Kd [2] [nM]	Kd [3] [nM]	koff [3] [s⁻¹]	kon [3] [M⁻¹ s⁻¹]	Kd [4] [nM]	koff [4] [s⁻¹]	kon [4] [M⁻¹ s⁻¹]	decrease in the signal derived from the complex, compared to H54//IC17 [5] [%]
ABD094(L)-H54//IC17 (bispecific antibody, human IgG1, kappa) heavy 1: QVQLQESGPGLVKPSETLSLTCAVSGYSISDDQAWSWVRQPPGEGLEWIGYISYSGITNYNPSLKGRVTISRDTSKNQFSLKLSSVTAADTAAYYCARSLARTTAMDYWGEGTLVTVSSASTKGPSVFPLAPSSKSTSGGTAALGCLVEDYFPEPVTVSWNSGALTSGVHTFPAVLQSSGLYSLSSVVTVPSSSLGTQTYICNVNHKPSNTKVDERVEPKSCDKTHTCPPCPAPELRRGPSVFLFPPKPKDTLMISRTPEVTCVVVDVSHEDPEVKFNWYVDGVEVHNAKTKPREEQYNSTYRVVSVLTVLHQDWLNGKEYKCKVSNKALPAPIEKTISKAKGQPREPQVCTLPPSREEMTKNQVSLSCAVKGFYPSDIAVEWESNGQPENNYKTTPPVLDSDGSFFLVSKLTVDKSRWQQGNVFSCSVMHEALHNHYTQKSLSLSP light 1: LAEAKEAANAELDSYGVSDFYKRLIDKAKTVEGVEALKDAILAALPDIQMTQSPSSLSASVGDSVTITCQASQDISSYLNWYQQKPGKAPELLIYYGSELHSGVPSRFSGSGSGTDFTFTISSLEAEDAATYYCQQGNSLPYTFGQGTKVEIERTVAAPSVFIFPPSDRKLKSGTASVVCLLNNFYPREAKVQWKVDNALQSGNSQESVTEQDSKDSTYSLSSTLTLSKADYEKHKVYACEVTHQGLSSPVTKSFNRGEC heavy 2: not shown light 2: QVQLQQSGPQLVRPGASVKISCKASGYSFTSYWMHWVNQRPGQGLEWIGMIDPSYSETRLNQKFKDKATLTVDKSSSTAYMQLSSPTSEDSAVYYCALYGNYFDYWGQGTTLTVSSASVAAPSVFIFPPSDEQLKSGTASVVCLLNNFYPREAKVQWKVDNALQSGNSQESVTEQDSKDSTYSLSSTLTLSKADYEKHKVYACEVTHQGLSSPVTKSFNRGEC	49.1	57.3	2.65	0.00118	445000	11.6	0.00131	113000	–
ABD094(H/L).N10-H54//IC17 (bispecific antibody, human IgG1, kappa, ABD094 linked via N10 linker (G) at VH and VL N-termini of the IL-6R arm; also called ABD094(H/L).NTO-H54//IC17; ABD094(H/L).NO-H54//IC17) heavy 1: LAEAKEAANAELDSYGVSDFYKRLIDKAKTVEGVEALKDAILAALPGQVQLQESGPGLVKPSETLSLTCAVSGYSISDDQAWSWVRQPPGEGLEWIGYISYSGITNYNPSLKGRVTISRDTSKNQFSLKLSSVTAADTAAYYCARSLARTTAMDYWGEGTLVTVSSASTKGPSVFPLAPSSKSTSGGTAALGCLVEDYFPEPVTVSWNSGALTSGVHTFPAVLQSSGLYSLSSVVTVPSSSLGTQTYICNVNHKPSNTKVDERVEPKSCDKTHTCPPCPAPELRRGPSVFLFPPKPKDTLMISRTPEVTCVVVDVSHEDPEVKFNWYVDGVEVHNAKTKPREEQYNSTYRVVSVLTVLHQDWLNGKEYKCKVSNKALPAPIEKTISKAKGQPREPQVCTLPPSREEMTKNQVSLSCAVKGFYPSDIAVEWESNGQPENNYKTTPPVLDSDGSFFLVSKLTVDKSRWQQGNVFSCSVMHEALHNHYTQKSLSLSP light 1: LAEAKEAANAELDSYGVSDFYKRLIDKAKTVEGVEALKDAILAALPGDIQMTQSPSSLSASVGDSVTITCQASQDISSYLNWYQQKPGKAPELLIYYGSELHSGVPSRFSGSGSGTDFTFTISSLEAEDAATYYCQQGNSLPYTFGQGTKVEIERTVAAPSVFIFPPSDRKLKSGTASVVCLLNNFYPREAKVQWKVDNALQSGNSQESVTEQDSKDSTYSLSSTLTLSKADYEKHKVYACEVTHQGLSSPVTKSFNRGEC heavy 2: not shown light 2: QVQLQQSGPQLVRPGASVKISCKASGYSFTSYWMHWVNQRPGQGLEWIGMIDPSYSETRLNQKFKDKATLTVDKSSSTAYMQLSSPTSEDSAVYYCALYGNYFDYWGQGTTLTVSSASVAAPSVFIFPPSDEQLKSGTASVVCLLNNFYPREAKVQWKVDNALQSGNSQESVTEQDSKDSTYSLSSTLTLSKADYEKHKVYACEVTHQGLSSPVTKSFNRGEC	–	–	–	–	–	–	–	–	95
ABD094(H/L).N02-H54//IC17 (bispecific antibody, human IgG1, kappa) heavy 1: LAEAKEAANAELDSYGVSDFYKRLIDKAKTVEGVEALKDAILAALPGGGGSQVQLQESGPGLVKPSETLSLTCAVSGYSISDDQAWSWVRQPPGEGLEWIGYISYSGITNYNPSLKGRVTISRDTSKNQFSLKLSSVTAADTAAYYCARSLARTTAMDYWGEGTLVTVSSASTKGPSVFPLAPSSKSTSGGTAALGCLVEDYFPEPVTVSWNSGALTSGVHTFPAVLQSSGLYSLSSVVTVPSSSLGTQTYICNVNHKPSNTKVDERVEPKSCDKTHTCPPCPAPELRRGPSVFLFPPKPKDTLMISRTPEVTCVVVDVSHEDPEVKFNWYVDGVEVHNAKTKPREEQYNSTYRVVSVLTVLHQDWLNGKEYKCKVSNKALPAPIEKTISKAKGQPREPQVCTLPPSREEMTKNQVSLSCAVKGFYPSDIAVEWESNGQPENNYKTTPPVLDSDGSFFLVSKLTVDKSRWQQGNVFSCSVMHEALHNHYTQKSLSLSP light 1: LAEAKEAANAELDSYGVSDFYKRLIDKAKTVEGVEALKDAILAALPGGGGSDIQMTQSPSSLSASVGDSVTITCQASQDISSYLNWYQQKPGKAPELLIYYGSELHSGVPSRFSGSGSGTDFTFTISSLEAEDAATYYCQQGNSLPYTFGQGTKVEIERTVAAPSVFIFPPSDRKLKSGTASVVCLLNNFYPREAKVQWKVDNALQSGNSQESVTEQDSKDSTYSLSSTLTLSKADYEKHKVYACEVTHQGLSSPVTKSFNRGEC heavy 2: not shown light 2: QVQLQQSGPQLVRPGASVKISCKASGYSFTSYWMHWVNQRPGQGLEWIGMIDPSYSETRLNQKFKDKATLTVDKSSSTAYMQLSSPTSEDSAVYYCALYGNYFDYWGQGTTLTVSSASVAAPSVFIFPPSDEQLKSGTASVVCLLNNFYPREAKVQWKVDNALQSGNSQESVTEQDSKDSTYSLSSTLTLSKADYEKHKVYACEVTHQGLSSPVTKSFNRGEC	–	–	–	–	–	–	–	–	55
